We go through 161 variants from the Human Domainome abundance scans (Beltran et al. 2025).

B1: KAT8 regulatory NSL complex subunit 2, residues 28 to 91; numbered along this chain, Q9H9L4 (parent)
chain: CAFTHRPCSHPRLEGQEFCIKHILEDKNAPFKQCSYISTKNGKRCPNAAPKPEKKDGVSFCAEH
B2: Syntaxin-binding protein 4, residues 493 to 538; numbered along this chain, Q6ZWJ1 (parent)
chain: LDMDCLPYGWEEAYTADGIKYFINHVTQTTSWIHPVMSVLNLSRSE

± gives the uncertainty stated by the source.

In the first series the parent is B1. Briefly: abundance fitness (aPCA) (normalised: wild type 0, dead -1); higher = more abundant; growth selection in yeast, the domain comes from the species named. To be noted: Homo sapiens.
As for DAFTHRPCSHPRLEGQEFCIKHILEDKNAPFKQCSYISTKNGKRCPNAAPKPEKKDGVSFCAEH [C1D], the abundance fitness was -0.896 ± 0.17.
Turning to GAFTHRPCSHPRLEGQEFCIKHILEDKNAPFKQCSYISTKNGKRCPNAAPKPEKKDGVSFCAEH [C1G], the abundance fitness was -0.604 ± 0.15.
Still for that read-out and setting: the result for EAFTHRPCSHPRLEGQEFCIKHILEDKNAPFKQCSYISTKNGKRCPNAAPKPEKKDGVSFCAEH [C1E] reads -0.322 ± 0.09.
Still for that read-out and setting: the same measure for AAFTHRPCSHPRLEGQEFCIKHILEDKNAPFKQCSYISTKNGKRCPNAAPKPEKKDGVSFCAEH [C1A]: -0.343 ± 0.27.

In a further series the parent is B2. The series is described as above. The conditions noted are these: Homo sapiens.
Consider E46K, for which the abundance fitness is -0.478 ± 0.4.
Regarding E46G, the abundance fitness was 0.23 ± 0.12.
For E46C, the abundance fitness was 0.486 ± 0.49.
The same measure, in the same setting: the result for E46A reads -0.517 ± 0.18; that for E46T, -0.143 ± 0.24.
Same read-out and setting: the same measure for E46N: -0.139 ± 0.31; for E46L: -0.668 ± 0.37.
On the same count and under the same terms, the result for E46D reads -0.243 ± 0.13.
With E46V, the abundance fitness is -0.365 ± 0.19.
In the case of E46R, the abundance fitness was -0.132 ± 0.2.
On the same count and under the same terms, the same measure for E46S: -0.582 ± 0.49; for E46Q: 0.008 ± 0.5; for E46F: -0.308 ± 0.3.
For S43E, the abundance fitness is 0.119 ± 0.11.
On the same count and under the same terms, the result for S43L reads -0.698 ± 0.14; that for S43F, -0.531 ± 0.12; that for S43N, 0.116 ± 0.16.
On to S43W, for which the abundance fitness was -1 ± 0.16.
On the same count and under the same terms, the same measure for S43T: -0.183 ± 0.14.
The same measure, in the same setting: the result for S43D reads 0.129 ± 0.12; that for S43R, -0.17 ± 0.094; that for S43K, -0.846 ± 0.23.
As for S43M, the abundance fitness is -0.75 ± 0.17.
Still for that read-out and setting: the same measure for S43C: -0.518 ± 0.13; for S43Y: -0.876 ± 0.24.
Same read-out and setting: the same measure for S43I: -0.606 ± 0.16; for S43Q: -0.732 ± 0.26; for S43A: -0.526 ± 0.11.
Same read-out and setting: the same measure for S43H: -0.021 ± 0.25; for S43P: -0.064 ± 0.12; for S43V: -0.44 ± 0.11.
For the variant M37T, the abundance fitness amounted to 0.146 ± 0.11.
As for M37S, the abundance fitness turned out to be 0.28 ± 0.09.
Same read-out and setting: the same measure for M37Q: 0.397 ± 0.12; for M37A: 0.219 ± 0.093.
On the same count and under the same terms, the result for M37R reads 0.558 ± 0.079.
Still for that read-out and setting: the result for M37F reads -0.292 ± 0.18; that for M37C, 0.056 ± 0.11.
As for M37G, the abundance fitness was determined as 0.059 ± 0.08.
Still for that read-out and setting: the same measure for M37N: 0.404 ± 0.21; for M37Y: -0.374 ± 0.2.
Turning to M37E, the abundance fitness worked out at 0.327 ± 0.095.
The same measure, in the same setting: the same measure for M37H: -0.15 ± 0.17.
Take M37P: the abundance fitness was -0.603 ± 0.14.
Consider M37K, for which the abundance fitness came out at 0.38 ± 0.11.
For M37L, the abundance fitness is -0.085 ± 0.092.
On to M37V, for which the abundance fitness is -0.226 ± 0.1.
The same measure, in the same setting: the result for L40P reads 0.067 ± 0.11.
Still for that read-out and setting: the result for L40H reads 0.07 ± 0.19; that for L40A, -0.127 ± 0.11; that for L40G, 0.164 ± 0.085.
For L40K, the abundance fitness worked out at 0.041 ± 0.11.
With L40V, the abundance fitness was -0.273 ± 0.096.
On the same count and under the same terms, the same measure for L40T: -0.319 ± 0.11; for L40S: 0.139 ± 0.085.
For the variant L40Y, the abundance fitness was -0.584 ± 0.16.
The same measure, in the same setting: the same measure for L40W: -0.136 ± 0.1; for L40E: 0.111 ± 0.11.
In the case of L40D, the abundance fitness was -0.471 ± 0.17.
The same measure, in the same setting: the result for L40Q reads 0.046 ± 0.11; that for L40I, -0.816 ± 0.16.
On the same count and under the same terms, the same measure for L40C: -0.154 ± 0.11; for L40N: 0.04 ± 0.15.
Turning to L40R, the abundance fitness was -0.003 ± 0.082.
As for L40F, the abundance fitness was -0.304 ± 0.14.
Same read-out and setting: the result for V36P reads -0.597 ± 0.12.
Same read-out and setting: the same measure for V36R: 0.712 ± 0.081.
On the same count and under the same terms, the result for V36I reads -0.598 ± 0.15; that for V36K, 0.746 ± 0.11.
For V36L, the abundance fitness was -0.035 ± 0.082.
The same measure, in the same setting: the same measure for V36A: 0.59 ± 0.083; for V36Q: 0.391 ± 0.1; for V36H: 0.224 ± 0.14.
Same read-out and setting: the result for V36G reads 0.528 ± 0.082; that for V36Y, -0.254 ± 0.13; that for V36F, -0.444 ± 0.12.
V36C: the abundance fitness is 0.585 ± 0.11.
Same read-out and setting: the same measure for V36W: -0.424 ± 0.12.
Still for that read-out and setting: the result for V36N reads 0.571 ± 0.14.
On to V36S, for which the abundance fitness came to 0.659 ± 0.084.
As to V36D, the abundance fitness turned out to be 0.168 ± 0.11.
Still for that read-out and setting: the same measure for V36T: 0.526 ± 0.095.
Consider V36E, for which the abundance fitness came out at 0.44 ± 0.093.
With I33A, the abundance fitness was -0.248 ± 0.1.
Same read-out and setting: the same measure for I33F: -0.549 ± 0.22; for I33W: -0.743 ± 0.13.
Consider I33C, for which the abundance fitness was found to be 0.031 ± 0.12.
Still for that read-out and setting: the same measure for I33N: -0.243 ± 0.19; for I33P: -0.897 ± 0.15; for I33S: 0.1 ± 0.1.
Still for that read-out and setting: the result for I33M reads -0.091 ± 0.15.
The same measure, in the same setting: the same measure for I33D: 0.272 ± 0.15.
As to I33H, the abundance fitness is -0.084 ± 0.14.
Same read-out and setting: the same measure for I33Y: -0.162 ± 0.17; for I33G: -0.199 ± 0.088.
The same measure, in the same setting: the same measure for I33K: -0.276 ± 0.13; for I33R: -0.481 ± 0.094.
Regarding I33Q, the abundance fitness stood at 0.064 ± 0.14.
The same measure, in the same setting: the result for I33L reads -0.245 ± 0.089; that for I33E, 0.511 ± 0.12; that for I33T, -0.075 ± 0.12.
As to T30D, the abundance fitness is -0.859 ± 0.14.
Still for that read-out and setting: the same measure for T30F: -0.998 ± 0.26; for T30K: -0.692 ± 0.15.
Still for that read-out and setting: the same measure for T30N: -0.727 ± 0.25.
Same read-out and setting: the result for T30V reads -0.691 ± 0.096; that for T30R, -0.719 ± 0.093.
In the case of T30S, the abundance fitness was found to be 0.363 ± 0.086.
Same read-out and setting: the same measure for T30C: -0.142 ± 0.14; for T30I: -0.936 ± 0.16; for T30Y: -1 ± 0.32.
Regarding T30G, the abundance fitness was -0.632 ± 0.085.
Still for that read-out and setting: the result for T30Q reads -0.624 ± 0.12; that for T30E, -0.857 ± 0.13; that for T30P, -0.857 ± 0.17.
Still for that read-out and setting: the same measure for T30L: -0.512 ± 0.096; for V39K: -0.205 ± 0.12.
On the same count and under the same terms, the result for V39N reads 0.168 ± 0.18; that for V39P, 1.03 ± 0.11.
In the case of V39E, the abundance fitness came to 0.144 ± 0.098.
Still for that read-out and setting: the result for V39R reads -0.083 ± 0.086.
Same read-out and setting: the result for V39C reads -0.134 ± 0.16; that for V39Q, 0.223 ± 0.12; that for V39D, 0.466 ± 0.11.
As for V39W, the abundance fitness was -0.55 ± 0.13.
On the same count and under the same terms, the result for V39I reads -0.599 ± 0.15.
With V39G, the abundance fitness worked out at 0.352 ± 0.086.
The same measure, in the same setting: the result for V39F reads 0.072 ± 0.15; that for V39H, -0.263 ± 0.18; that for V39S, -0.079 ± 0.093.
On to V39Y, for which the abundance fitness is -0.851 ± 0.26.
Still for that read-out and setting: the result for V39L reads -0.386 ± 0.097; that for V39M, -0.174 ± 0.12; that for V39A, -0.135 ± 0.095.
For V39T, the abundance fitness is 0.04 ± 0.11.
On the same count and under the same terms, the same measure for L42M: -0.046 ± 0.11; for L42P: -0.304 ± 0.14.
Consider L42W, for which the abundance fitness was -0.292 ± 0.1.
Turning to L42T, the abundance fitness was 0.048 ± 0.12.
L42N: the abundance fitness was determined as 0.578 ± 0.12.
The same measure, in the same setting: the result for L42Y reads -0.876 ± 0.21; that for L42G, 0.174 ± 0.077.
For L42H, the abundance fitness worked out at 0.52 ± 0.14.
For L42V, the abundance fitness amounted to 0.052 ± 0.081.
Still for that read-out and setting: the same measure for L42A: -0.05 ± 0.088; for L42D: 0.022 ± 0.14; for L42K: 0.16 ± 0.12.
As to L42S, the abundance fitness was 0.162 ± 0.095.
As for L42E, the abundance fitness turned out to be 0.198 ± 0.1.
Same read-out and setting: the same measure for L42C: 0.025 ± 0.12.
With L42R, the abundance fitness was found to be 0.108 ± 0.085.
T29S: the abundance fitness is -0.475 ± 0.098.
Take T29V: the abundance fitness worked out at 0.766 ± 0.1.
For T29I, the abundance fitness was 0.226 ± 0.1.
The same measure, in the same setting: the result for T29K reads -0.759 ± 0.46.
Still for that read-out and setting: the result for T29W reads -0.556 ± 0.47.
On the same count and under the same terms, the same measure for T29L: -0.969 ± 0.12.
